Data taken from patent US20040037820A1 (published 2004).

Target: T1, VEGFR-3 full-length extracellular domain (Homo sapiens (Human), UniProt P35916 25-775)
T1 construct: the construct is not described; also called the full-length extracellular domain
T1 sequence: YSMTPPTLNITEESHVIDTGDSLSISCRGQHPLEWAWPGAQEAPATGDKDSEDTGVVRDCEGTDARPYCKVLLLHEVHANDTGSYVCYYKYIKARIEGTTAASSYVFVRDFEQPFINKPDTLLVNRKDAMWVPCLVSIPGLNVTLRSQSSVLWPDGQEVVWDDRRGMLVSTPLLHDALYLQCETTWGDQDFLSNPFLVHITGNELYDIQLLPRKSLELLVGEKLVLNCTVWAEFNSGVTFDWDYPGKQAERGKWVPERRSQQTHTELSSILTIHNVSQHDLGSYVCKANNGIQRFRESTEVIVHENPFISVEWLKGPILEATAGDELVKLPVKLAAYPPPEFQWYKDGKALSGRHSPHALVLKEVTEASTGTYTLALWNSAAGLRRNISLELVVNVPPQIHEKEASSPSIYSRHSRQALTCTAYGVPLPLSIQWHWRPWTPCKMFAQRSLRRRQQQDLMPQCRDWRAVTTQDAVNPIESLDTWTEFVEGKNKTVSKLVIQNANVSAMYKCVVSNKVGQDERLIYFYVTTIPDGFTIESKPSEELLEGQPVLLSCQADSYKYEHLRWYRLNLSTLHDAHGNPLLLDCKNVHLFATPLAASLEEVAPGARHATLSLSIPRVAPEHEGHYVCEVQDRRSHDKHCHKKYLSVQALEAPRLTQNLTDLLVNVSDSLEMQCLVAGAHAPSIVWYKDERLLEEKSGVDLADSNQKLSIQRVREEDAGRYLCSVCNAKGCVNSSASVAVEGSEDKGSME
Test: not described

binding result: binds
B1: VEGF-D (ligand)
chain: FYDIETLKVIDEEWQRTQCSPRETCVEVASELGKSTNTFFKPPCVNVFRCGGCCNEESLICMNTSTSYISKQLFEISVPLTSVPELVPVKVANHTGCKCLPTAPRHPYS
notes: Bought protein; also called vascular endothelial growth factor D
